# Test system: His-ArgR2 (Lactiplantibacillus plantarum AR195)
# Assay: BLI
# Conditions: ArgR2 256-4097 nM; BLI: 10 mM HEPES pH 8.0, 2 mM MgCl2, 0.1 mM EDTA, 200 mM KCl, 1 per mille (w/v) BSA and 2 per mille (v/v) Tween 20 in protein buffer; temperature not stated. …
substance,measurement,value
cla promoter probe,Kd,< 1 pM

# Reference: article PMC9241672
